# Laboratory results: the supplement of paper PMC10724198
# ± gives the standard deviation of the averaged measurements.
# Test system: Saccharomyces cerevisiae
# Experiment: protein stability index of tFT-peptide fusion (C-terminal peptide) (PSI (0-1 scale)); higher = more stable (slower turnover)
# Settings: genetic background: wild type; temperature: 30 C
# Experimental: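 Multiplexed protein stability (MPS) profiling in S. cerevisiae. Random 12-aa peptides (tFT-X12 library) are fused to the C-terminus of a sfGFP-mCherry tandem fluorescent timer, after mCherry and a GGGS linker. Cells are FACS-sorted into 8 mCherry/sfGFP bins and deep-sequenced. The protein stability index (PSI) is the read-weighted bin average, scaled from 0 (unstable) to 1 (stable). Only peptides with >10 reads are reported; cells were grown at 30 °C in SC-His with glucose.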
# 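Also: PSI is a weighted mean of sequencing reads over stability bins, variants kept only with over 10 reads, mCherry proximal and sfGFP distal, peptide attached via GGGS linker.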
row,Sequence,protein stability index
1,TLGGRPFQGTPA,0.698 ± 0.016
2,RMGWTRCRGGYG,0.5865 ± 0.0044
3,SPEPSFPPLLLP,0.715 ± 0.015
4,GASGVYMLDAYA,0.632 ± 0.058
5,PPPAPPPCAPTP,0.713 ± 0.043
6,TTQTYAPLTPHR,0.64 ± 0.097
7,PPAPPPPPIRPP,0.696 ± 0.033
8,PVLSPPRPFNSL,0.677 ± 0.018
9,VVRALSTQVCLP,0.645 ± 0.098
10,GRADWERGMGLV,0.664 ± 0.021
11,VRSYLARFEVYV,0.531 ± 0.019
12,SLLPSHFASFSP,0.744 ± 0.03
13,RKHLIPRPTSNP,0.71 ± 0.011
14,QYILGLLLVPLG,0.587 ± 0.032
15,GYLNCFGYVWGP,0.653 ± 0.04
16,DSPASHWSVKSL,0.638 ± 0.043
17,KKETRKKETKKE,0.685 ± 0.041
18,YGSRWRPYLGFR,0.669 ± 0.028
19,KQKKIGNKITNK,0.667 ± 0.008
20,PPPTPPPAPSHR,0.677 ± 0.1
21,PTTAPPPRSAGA,0.764 ± 0.051
22,LYGSIPFGCRIL,0.94 ± 0.018
23,FFPQLRPNSSTS,0.724 ± 0.042
24,FGAFCSWLLLHS,0.61 ± 0.026
25,IIQTTKPTRNIK,0.67 ± 0.022

row,Sequence,protein stability index
1,PPALHPPPLPPR,0.646 ± 0.028
2,TGVRTVCDVGRW,0.6648 ± 0.004
3,GGTSCLLSTAGD,0.653 ± 0.079
4,ELVSFPIGGMGS,0.671 ± 0.056
5,DNLFSPTLLWEL,0.6674 ± 0.0034
6,VGMGAWVQQIVL,0.666 ± 0.043
7,GRLGRHFSVKFL,0.6584 ± 0.0052
8,VDVHWSVLCPLG,0.851 ± 0.098
9,FAPSPVPPLAPF,0.682 ± 0.053
10,RGEMGLAPTGGD,0.651 ± 0.044
11,KKKENKNEKKKE,0.692 ± 0.06
12,KRGFSLKEARGF,0.642 ± 0.008
13,ANRGYRYGASRV,0.649 ± 0.017
14,GSVGSFIVVVHF,0.552 ± 0.013
15,LSTPPLPRPYPP,0.654 ± 0.038
16,KKGGKEEPSRRK,0.741 ± 0.084
17,KSFQLEHKYTRN,0.737 ± 0.029
18,KTRKNNSKKNTK,0.688 ± 0.019
19,VYKLDLEEENRS,0.654 ± 0.072
20,LIFKLQLPSPWL,0.643 ± 0.042
21,LSPPAPPLLFSP,0.691 ± 0.035
22,KSPDSLDIRFHT,0.714 ± 0.13
23,RLPPPLALDFRP,0.6308 ± 0.0063
24,PPTANPMLPPPF,0.651 ± 0.055
25,QAIEAGPPEHGY,0.677 ± 0.036

row,Sequence,protein stability index
1,WVWGVLGAVWFG,0.632 ± 0.0091
2,SIWLPPSRPPPS,0.766 ± 0.015
3,GADPPGHSSDDS,0.712 ± 0.11
4,KIGEVNKKQSII,0.743 ± 0.064
5,PHPERLLCPPYP,0.68 ± 0.024
6,RGVSRQVRTVDP,0.679 ± 0.03
7,APPPRSPPPPPL,0.6796 ± 0.0067
8,VSDLFWAELIGN,0.71 ± 5.7e-06
9,TPRPPPLPPRPP,0.603 ± 0.029
10,DDSVGKLFYCLF,0.7 ± 0.03
11,QTRKRESPAMVT,0.639 ± 0.02
12,LSVMLEGLFGLL,0.662 ± 0.018
13,YPRNPSLSTSAS,0.63 ± 0.16
14,PLPPLPLAPSLP,0.708 ± 0.065
15,WPSMFFSIEESW,0.887 ± 0.042
16,KGRKKKKRKEQE,0.693 ± 0.016
17,FPLLGRCCRAVQ,0.682 ± 0.043
18,AAIARRNIFKAR,0.689 ± 0.039
19,ALVPESDLGLNF,0.714 ± 0.026
20,DVWVLAANSSLG,0.758 ± 0.1
21,VSRGRSAKKSAI,0.695 ± 0.06
22,RFGGSGGLPGGW,0.665 ± 0.031
23,DPRAGLGLLELT,0.644 ± 0.067
